Positions count from the first letter of the chain named.
B1: F3.121.4-L3H3 (antibody, mouse IgG1, kappa)
heavy: EVQLVQSGAEVKKPGASVKVSCKASGYTFTNYWMHWVRQRPGQGLEWMGEIDPSDNYANYNQEFQGRVTITVDKSASTAYMELSSLRSEDTAVYYCARHDGYFGALDYWGQGTTVTVSSAKTTPPSVYPLAPGSAAQTNSMVTLGCLVKGYFPEPVTVTWNSGSLSSGVHTFPAVLQSDLYTLSSSVTVPSSTWPSETVTCNVAHPASSTKVDKKIVPRDCGCKPCICTVPEVSSVFIFPPKPKDVLTITLTPKVTCVVVDISKDDPEVQFSWFVDDVEVHTAQTQPREEQFNSTFRSVSELPIMHQDWLNGKEFKCRVNSAAFPAPIEKTISKTKGRPKAPQVYTIPPPKEQMAKDKVSLTCMITDFFPEDITVEWQWNGQPAENYKNTQPIMDTDGSYFVYSKLNVQKSNWEAGNTFTCSVLHEGLHNHHTEKSLSHSPGK
light: EIVLTQSPDFQSVTPKEKVTITCSASSSISSNYLHWYQQKPDQSPKFLIYRTSNLASGVPSRFSGSGSGTDFTLTINSLEAEDAATYYCQQASSIPRMFTFGQGTKLEIKRADAAPTVSIFPPSSEQLTSGGASVVCFLNNFYPKDINVKWKIDGSERQNGVLNSWTDQDSKDSTYSMSSTLTLTKDEYERHNSYTCEATHKTSTSPIVKSFNRNEC
notes: humanized antibody of F3.121.4, VL3+VH3, murine IgG1 constant regions
B2: F3.121.4-L3H4 (antibody, mouse IgG1, kappa)
heavy: B1 heavy with V5Q
light: B1 light
notes: humanized antibody of F3.121.4, VL3+VH4, murine IgG1 constant regions

Key:
human CD19 on Raji cells = molecular target: T1, human CD19 on Raji cells (human, UniProt P15391 20-556); assay: FACS on Raji cells
T1 construct: whole, on cells
T1 sequence (looked up): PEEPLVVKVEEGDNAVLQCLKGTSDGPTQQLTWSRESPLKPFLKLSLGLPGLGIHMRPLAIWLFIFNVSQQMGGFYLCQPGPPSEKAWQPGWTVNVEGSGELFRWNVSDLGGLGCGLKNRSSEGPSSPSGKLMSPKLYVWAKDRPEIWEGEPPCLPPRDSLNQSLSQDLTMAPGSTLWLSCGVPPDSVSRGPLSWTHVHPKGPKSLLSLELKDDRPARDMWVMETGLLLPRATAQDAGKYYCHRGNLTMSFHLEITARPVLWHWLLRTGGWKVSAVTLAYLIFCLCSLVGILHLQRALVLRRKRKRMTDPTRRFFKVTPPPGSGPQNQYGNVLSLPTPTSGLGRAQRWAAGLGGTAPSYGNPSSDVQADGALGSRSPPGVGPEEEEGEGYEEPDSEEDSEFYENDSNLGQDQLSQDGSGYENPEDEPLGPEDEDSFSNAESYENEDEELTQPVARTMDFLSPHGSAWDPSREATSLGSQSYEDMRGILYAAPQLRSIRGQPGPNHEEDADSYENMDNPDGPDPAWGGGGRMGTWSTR

Human CD19-his protein [1] = molecular target: T2, Human CD19-his protein (human, UniProt P15391 20-291); assay: ELISA, coated human CD19-His
T2 construct: bought protein; also called recombinant human CD19-His; CD19 full-length protein; not shown: His tag
T2 sequence (looked up): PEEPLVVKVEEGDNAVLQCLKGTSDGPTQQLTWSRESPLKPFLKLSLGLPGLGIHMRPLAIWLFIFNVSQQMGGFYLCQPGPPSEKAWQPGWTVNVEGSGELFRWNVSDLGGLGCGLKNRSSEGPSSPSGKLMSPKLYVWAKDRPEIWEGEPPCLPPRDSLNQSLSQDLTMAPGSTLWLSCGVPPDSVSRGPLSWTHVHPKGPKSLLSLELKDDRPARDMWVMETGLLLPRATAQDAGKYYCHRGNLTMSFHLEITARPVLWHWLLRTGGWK

[2] = molecular target: T3, human CD19 on CHO-K1-human CD19 cells (human, UniProt P15391 20-556); assay: FACS on CHO-K1-human CD19 cells
T3 construct: whole, on cells; also called CHO-K1-human CD19-2C8
T3 sequence (looked up): T1 sequence (looked up)

Human CD19-his protein [3] = molecular target: T2, Human CD19-his protein; assay: ELISA on coated human CD19-His
[4] = molecular target: T4, human CD19 exon1-3-His tag protein (human, UniProt P15391 20-186, limits assumed); assay: ELISA, coated human CD19 exon 1-3-His
T4 construct: membrane-distal part of the extracellular region, made in HEK293E cells; not shown: His tag
T4 sequence (looked up): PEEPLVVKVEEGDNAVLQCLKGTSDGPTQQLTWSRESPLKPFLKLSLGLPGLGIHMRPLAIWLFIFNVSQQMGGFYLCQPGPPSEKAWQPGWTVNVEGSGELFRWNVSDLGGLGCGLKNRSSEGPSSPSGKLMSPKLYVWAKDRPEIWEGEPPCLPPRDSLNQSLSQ

Human CD19-his protein [5] = molecular target: T2, Human CD19-his protein; assay: SPR Biacore, method of example 7.1, human CD19-His
Procedure, shortened: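 Antibody captured on Protein A chip; recombinant human CD19-His injected for 240 s at 30 μl/min, five 1:1 dilutions from 200 nM, dissociation up to 600 s.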

| Binder | EC50 (human CD19 on Raji cells) | Maximum mean fluorescence intensity (human CD19 on Raji cells) | OD450 at 0.0001 nM (Human CD19-his protein [1]) | OD450 at 0.001 nM (Human CD19-his protein [1]) | OD450 at 0.01 nM (Human CD19-his protein [1]) | OD450 at 0.10 nM (Human CD19-his protein [1]) | OD450 at 1.00 nM (Human CD19-his protein [1]) | OD450 at 10 nM (Human CD19-his protein [1]) | OD450 at 100 nM (Human CD19-his protein [1]) | EC50 [2] | Maximum mean fluorescence intensity [2] | EC50 (read off the curve) (Human CD19-his protein [3]) | OD450 at 0.0001 nM [4] | OD450 at 0.001 nM [4] | OD450 at 0.01 nM [4] | OD450 at 0.10 nM [4] | OD450 at 1.00 nM [4] | OD450 at 10 nM [4] | OD450 at 100 nM [4] | Kd (Human CD19-his protein [5]) | further results |
| --- | --- | --- | --- | --- | --- | --- | --- | --- | --- | --- | --- | --- | --- | --- | --- | --- | --- | --- | --- | --- | --- |
| B1 | 0.45 nM | 32200 MFI | 0.1 OD450 | 0.15 OD450 | 0.43 OD450 | 1.65 OD450 | 2.28 OD450 | 2.22 OD450 | 2.19 OD450 | 1.16 nM | 51800 MFI | ~0.05 nM | 0.05 OD450 | 0.05 OD450 | 0.05 OD450 | 0.05 OD450 | 0.05 OD450 | 0.05 OD450 | 0.08 OD450 | 0.0088 nM | koff (Human CD19-his protein [5]): 1.04e-06 s⁻¹; kon (Human CD19-his protein [5]): 118000 M⁻¹ s⁻¹ |
| B2 | 0.43 nM | 32500 MFI | 0.11 OD450 | 0.16 OD450 | 0.51 OD450 | 1.68 OD450 | 2.31 OD450 | 2.26 OD450 | 2.31 OD450 | 1.05 nM | 50500 MFI | ~0.05 nM | 0.06 OD450 | 0.06 OD450 | 0.06 OD450 | 0.06 OD450 | 0.06 OD450 | 0.07 OD450 | 0.11 OD450 | 0.225 nM | koff (Human CD19-his protein [5]): 2.51e-05 s⁻¹; kon (Human CD19-his protein [5]): 112000 M⁻¹ s⁻¹ |

Source: patent publication US20250042994A1 (HAINAN SIMCERE ZAIMING PHARMACEUTICAL, published 2025)
